# IntAct's records for PubMed 23142976
# B1: Ubiquitin-like modifier-activating enzyme ATG7 (Saccharomyces cerevisiae), P38862 (parent)
# chain: MSSERVLSYAPAFKSFLDTSFFQELSRLKLDVLKLDSTCQPLTVNLDLHNIPKSADQVPLFLTNRSFEKHNNKRTNEVPLQGSIFNFNVLDEFKNLDKQLFLHQRALECWEDGIKDINKCVSFVIISFADLKKYRFYYWLGVPCFQRPSSTVLHVRPEPSLKGLFSKCQKWFDVNYSKWVCILDADDEIVNYDKCIIRKTKVLAIRDTSTMENVPSALTKNFLSVLQYDVPDLIDFKLLIIRQNEGSFALNATFASIDPQSSSSNPDMKVSGWERNVQGKLAPRVVDLSSLLDPLKIADQSVDLNLKLMKWRILPDLNLDIIKNTKVLLLGAGTLGCYVSRALIAWGVRKITFVDNGTVSYSNPVRQALYNFEDCGKPKAELAAASLKRIFPLMDATGVKLSIPMIGHKLVNEEAQHKDFDRLRALIKEHDIIFLLVDSRESRWLPSLLSNIENKTVINAALGFDSYLVMRHGNRDEQSSKQLGCYFCHDVVAPTDSLTDRTLDQMCTVTRPGVAMMASSLAVELMTSLLQTKYSGSETTVLGDIPHQIRGFLHNFSILKLETPAYEHCPACSPKVIEAFTDLGWEFVKKALEHPLYLEEISGLSVIKQEVERLGNDVFEWEDDESDEIA
# partner: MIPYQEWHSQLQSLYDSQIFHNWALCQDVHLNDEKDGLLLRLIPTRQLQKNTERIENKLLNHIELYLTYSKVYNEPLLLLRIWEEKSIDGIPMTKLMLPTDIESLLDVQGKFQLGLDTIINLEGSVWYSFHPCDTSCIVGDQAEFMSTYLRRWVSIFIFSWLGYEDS
# B2: Autophagy-related protein 3 (Saccharomyces cerevisiae), P40344 (parent)
# chain: MIRSTLSSWREYLTPITHKSTFLTTGQITPEEFVQAGDYLCHMFPTWKWNEESSDISYRDFLPKNKQFLIIRKVPCDKRAEQCVEVEGPDVIMKGFAEDGDEDDVLEYIGSETEHVQSTPAGGTKDSSIDDIDELIQDMEIKEEDENDDTEEFNAKGGLAKDMAQERYYDLYIAYSTSYRVPKMYIVGFNSNGSPLSPEQMFEDISADYRTKTATIEKLPFYKNSVLSVSIHPCKHANVMKILLDKVRVVRQRRRKELQEEQELDGVGDWEDLQDDIDDSLRVDQYLIVFLKFITSVTPSIQHDYTMEGW
# partner: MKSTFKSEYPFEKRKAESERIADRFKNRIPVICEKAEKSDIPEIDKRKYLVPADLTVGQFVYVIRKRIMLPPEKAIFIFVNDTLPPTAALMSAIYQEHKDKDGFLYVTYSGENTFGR
# B3: Ubiquitin-like modifier-activating enzyme ATG7 (Saccharomyces cerevisiae), P38862 (parent)
# chain: B1 chain
# partner: B2 chain
# Variants of: B1
# Conditions: with atg10_yeast ATG10, Q07879
row,effect of a mutation on the interaction,Variant
1,disrupting interaction strength,C507A
2,decreasing interaction strength,Y137A
3,disrupting interaction strength,V285D

# Variants of: B2
# Conditions: with atg8_yeast ATG8, P38182
row,effect of a mutation on the interaction,Variant
1,disrupting interaction strength,R72A;K73A;Y168A

# Variants of: B3
# Conditions: with atg3_yeast ATG3, P40344
row,Variant,effect of a mutation on the interaction
1,K14A;F16A;D18A,decreasing interaction strength
2,F16A;F61A,decreasing interaction strength

# The next lines start with the values.
row,effect of a mutation on the interaction,Variant
1,decreasing interaction strength,P283D
2,decreasing interaction strength,V285A
3,disrupting interaction strength,C507A
